Consider one molecule from article PMC7642358 (2020).

For assay [1], the target named is T1, SARS-CoV-2 spike receptor-binding domain (2019-nCoV RBD-SD1, residues 319–566) (SARS-CoV-2, UniProt P0DTC2 319-566, chemically biotinylated with NHS-PEG4-Biotin for selection, ELISA and BLI). The assay can be described thus: BLI.
Assay [2] concerns the target T1, SARS-CoV-2 spike receptor-binding …. Briefly: BLI. This is another data set of the same source. In general terms: In BLI a coated tip is dipped into the sample, and binding shifts an interference pattern.

B1: Sb23-Fc (Sb23 fused to the Fc domain from human IgG) (Fc fusion)
chain: QVQLVESGGGLVQAGGSLRLSCAASGFPVESENMHWYRQAPGKEREWVAAIYSTGGWTLYADSVKGRFTISRDNAKNTVYLQMNSLKPEDTAVYYCAVQVGYWYEGQGTQVTVS
Broadly, the Kd is the equilibrium constant for the complex coming apart. A low value points to higher affinity. By koff is commonly meant the rate constant with which the complex falls apart. A lower koff goes with slow dissociation. In assay [1], B1 returned a Kd of 0.225 nM. For the same molecule, the koff in assay [2] stood at 7.1e-05 s⁻¹.
